Reference: patent US20070134249A1 (GENITOPE, published 2007)

Columns and labels:
Assay in all cases: ELISA
Design in all cases: key: 0 = <0.5 OD, 1 = 0.5-1.0 OD, 4 = 1-4 OD
[1] = molecular target: T1, 805
T1 construct: H3-7 K3-11; also called PIN805
Description: (§1) Before specificity screening, all of the clonal immunogen-positive hybridoma supernatants were re-screened on the immunogen, a non-family member Id protein, and KLH, if animals were immunized with Id protein that has been conjugated KLH. As described above, this screen identifies HC-specific clones but not mAbs against the light chain constant region. Clones identified positive to the immunogen and KLH were […]. Those found positive to the immunogen but not to the non-family member Id protein or KLH were tittered on the immunogen. In addition to normalizing for different binding affinities and concentrations, each hybridoma supernatant was titered on the fully human form of the Id protein used as the immunogen(s) for the V regions. The titer or dilution resulting in an ELISA absorbance of 2.5 to 3 OD after 30 min. incubation time was then used. Hybridoma specificity was determined by screening against available Id proteins expressing the same HV and KV or LV as well as different HV, KV and LV. The final ELISA results are expressed as follows: 0 (<0.5 OD), 1 (0.5-1.0 OD), or 4 (1-4 OD). Positive hybridoma supernatants are categorized according to specificity: anti-Id, anti-constant region (HC, KC or LC), or V region (HV, KV, LV family or family member).
(§2) In general, the fully human Id protein or proteins containing the immunogen V regions were coated onto 96-well ELISA plates at 2.5-5 ug/mL in carbonate buffer pH 9.6 and incubated at 4° C. for up to 14 days. On the day of the ELISA, plates were brought to RT and blocked with Tris-Tween-20, pH 7.6 for 15-60 min. at RT. Following a NaCl and Triton X-100 wash, diluted hybridoma cell culture supernatants were incubated overnight at 4° C. Hybridoma supernatant dilutions ranged from 1:2 to 1:25 and were prepared in PBS with 5% BSA. Plates were washed and incubated with HRP-conjugated goat anti-mouse IgG-specific detecting antibody. A chromogenic substrate (TMB) was used to measure the amount of mouse antibody bound to each well. The reaction was stopped at or before 30 minutes with IN H2SO4 and plates were read immediately. Absorbency readings at 450 nm ranging between 0-4 OD and using Molecular Devices plate reader and SOFTMAX PRO software.

[2] = molecular target: T2, 902
T2 construct: H3-7 K3-20; also called PIN902
Description: as §1, §2

[3] = molecular target: T3, 626
T3 construct: H5-51 K4-1; also called PIN626
Description: as §1, §2

[4] = molecular target: T4, 112
T4 construct: H4-39 K4-1; also called PIN112
Description: as §1, §2

[5] = molecular target: T5, 199
T5 construct: H3-7 K4-1; also called PIN199
Description: as §1, §2

[6] = molecular target: T6, 585
T6 construct: H4-59 K4-1; also called PIN585
Description: as §1, §2

[7] = molecular target: T7, 659
T7 construct: H3-21 K4-1; also called PIN659
Description: as §1, §2

[8] = molecular target: T8, 628
T8 construct: fully human Id protein; also called PIN628
T8 sequence (VH, as listed by the source, chain 1 of 2): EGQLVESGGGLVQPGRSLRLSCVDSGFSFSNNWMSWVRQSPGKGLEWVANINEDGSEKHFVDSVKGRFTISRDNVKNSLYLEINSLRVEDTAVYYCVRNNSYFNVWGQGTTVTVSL
T8 sequence (VL, as listed by the source, chain 2 of 2): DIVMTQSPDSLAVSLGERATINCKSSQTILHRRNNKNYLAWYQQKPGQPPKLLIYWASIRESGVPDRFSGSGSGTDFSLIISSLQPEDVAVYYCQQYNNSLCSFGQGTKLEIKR
Description: as §1, §2

[9] = molecular target: T9, 844
T9 construct: H3-7 K4-1; also called PIN844
Description: as §1, §2

[10] = molecular target: T10, 192
T10 construct: H5-51 K4-1; also called PIN192
Description: as §1, §2

[11] = molecular target: T11, 204
T11 construct: H3-15 K4-1; also called PIN204
Description: as §1, §2

[12] = molecular target: T12, 566
T12 construct: H3-73 K4-1; also called PIN566
Description: as §1, §2

[13] = molecular target: T13, 839
T13 construct: H3-23 K4-1; also called PIN839
Description: as §1, §2

[14] = molecular target: T14, 898
T14 construct: H3-15 K4-1; also called PIN898
Description: as §1, §2

[15] = molecular target: T15, 912
T15 construct: H3-23 K4-1; also called PIN912
Description: as §1, §2

[16] = molecular target: T16, 950
T16 construct: H4-59 K4-1; also called PIN950
Description: as §1, §2

[17] = molecular target: T17, 1014
T17 construct: H3-53 K4-1; also called PIN1014
Description: as §1, §2

[18] = molecular target: T18, 1145
T18 construct: H3-11 K4-1; also called PIN1145
Description: as §1, §2

[19] = molecular target: T19, 899
T19 construct: H4-34 K4-1; also called PIN899
Description: as §1, §2

[20] = molecular target: T20, PIN185 fully human Id protein (human)
T20 construct: Patient-derived idiotype immunoglobulin used as control antigen in SPR
Description: as §1, §2

Measured: grade

B1: mAb clone 12C3 (antibody, V domains shown)
VH: EVKLVESGGGLVQPGGSLSLSCAASGFTYTDYYMNWVRQPPGKALEWLALIRNKANGYTTEYSASLKGRFTISRDNSQSILYLQMNALRAEDSATYYCVRENINYYFDYWGQGTTLTVSS
VL: DIVLTQSPASLAVSLGQRATISCRASESVEYFGASLMQWYQQKSGQPPKLLIRAATNVESGVPARFSGSGSGTDFSLNIHPVEEDDIAMYFCQQSRKVPWTFGGGTKLEIKR
notes: Mouse hybridoma mAb, fusions 20/21 (PIN628 V regions)
4: all assays above
